The values below come from patent publication US20260167714A1 (COHERUS BIOSCIENCES, published 2026).

Assay [1] deals with T1, human ILT4 expressed on cells (human, UniProt Q8N423 22-597). The assay can be described thus: cell-based or functional assay.
In assay [2] the target is T2, recombinant human ILT4 (LILRB2) (human, UniProt Q8N423 22-460).
T2 construct: Bought protein (Acro Biosystems or R&D Systems); also called ILTR4
The assay can be described thus: SPR, high resolution kinetics, triplicate. In general terms: SPR reads the build-up and loss of mass on a sensor chip optically.

For assay [3], the target named is T2, recombinant human ILT4 (LILRB2). The assay is described as follows: SPR, high resolution kinetics, triplicate; 95% CI in parentheses.
Assay [4] concerns the target T1, human ILT4 expressed on cells. The assay is described as follows: flow cytometry on ILT4-CHO cells, unlabelled mAb titrated; competitor AF647-Hz45.01-LALA. The procedure:
(§1) Competition binding assays were performed. […] Binding activities were measured by flow cytometry.
Anti-human ILT4 mAbs at various concentrations (0-15 μg/ml) were incubated with ILT4-CHO cells. Cells were washed and stained with AF647-Hz45.01-LALA. Cells were analyzed by flow cytometry.
For orientation: A flow cytometer gives signals particle by particle.

For assay [5] the target is unchanged. The assay is described as follows: flow cytometry on ILT4-CHO cells, unlabelled mAb titrated; competitor AF647-Hz156.03-LALA. As for the experimental part:
as §1
Anti-human ILT4 mAbs at various concentrations (0-15 μg/ml) were incubated with ILT4-CHO cells. Cells were washed and stained with AF647-Hz156.03-LALA. Cells were analyzed by flow cytometry.

Assay [6] shares this target. The assay is described as follows: flow cytometry, blockade of PE-HLA-G tetramer (5 µg/ml) binding to CHO-S/ILT4 cells, experiment 1.
Assay [7] has the same target. The assay is described as above. The source holds these as a separate data set.
For assay [8] the target is unchanged. The assay is described as follows: flow cytometry, blockade of PE-HLA-G tetramer (5 µg/ml) binding to CHO-S/ILT4 cells, experiment 2. As for the experimental part: (§2) In the second blocking experiment, the primary antibody dilutions were made by diluting antibody to 15 μg/ml in FACS buffer. Three independent sets of eleven 2.5-fold serial dilutions were then made in FACS buffer from 15 μg/ml to 0.002 μg/ml. Each dilution set was handled independently, and 50 μl from each was added to cells in duplicate. Control wells received FACS buffer with no antibody. Wells were mixed and incubated for 30 minutes at 4 degrees C. Cells were washed twice in FACS buffer.
(§3) In both blocking experiments, phycoerythrin (PE)-conjugated HLA-G tetramer was diluted in FACS buffer to 5 μg/ml and 100 μl per well was added to cells. Cells were incubated at 4 degrees C. for 30 minutes, washed twice in FACS buffer, and resuspended in 250 μl FACS buffer with 0.1 μg/ml propidium iodide.
(§4) Cells were acquired on an Attune flow cytometer, with 5000 propidium iodide-negative cells collected per sample, and MFI was recorded. Relative blocking activity was calculated with the following formula: 100−(Sample MFI−Background MFI)/(Top MFI−Background MFI)*100. Prism software (Graphpad) was used to plot MFI and relative blocking activity for each sample. The blocking potency for each antibody, represented as IC₅₀, was calculated with Prism software.

Assay [9] shares this target. The assay can be described thus: flow cytometry blocking assay: ILT4-expressing CHO cells preincubated with antibody, then PE-HLA-G; HLA-G binding MFI falls from about 105000 (no antibody) to near 0. As for the experimental part:
as §2, §3, §4

The target is the same in assay [10]. The assay is described as follows: cell-based or functional assay. This is another data set of the same source.
The target is the same in assay [11]. The assay is described as follows: cell-based or functional assay. This is another data set of the same source.
Assay [12] shares this target. The assay is described as follows: flow cytometry, blockade of PE-HLA-G tetramer binding to ILT4-CHO cells, Experiment 1.
Assay [13] has the same target. The assay can be described thus: flow cytometry, blockade of PE-HLA-G tetramer binding to ILT4-CHO cells, Experiment 2.
Assay [14] shares this target. The assay is described as follows: flow cytometry, blockade of PE-HLA-G tetramer binding to ILT4-CHO cells, Experiment 3.
Assay [15] shares this target. The assay can be described thus: flow cytometry, blockade of PE-HLA-A tetramer (5 ug/ml) binding to ILT4-CHO cells, Experiment 1 (table title prints HLA-G).
For assay [16] the target is unchanged. The assay can be described thus: flow cytometry, blockade of PE-HLA-A tetramer (5 ug/ml) binding to ILT4-CHO cells, Experiment 2 (table title prints HLA-G).
The target is the same in assay [17]. The assay can be described thus: flow cytometry, blockade of PE-HLA-A tetramer (5 ug/ml) binding to ILT4-CHO cells, Experiment 3 (table title prints HLA-G).
In assay [18] the target is T2, recombinant human ILT4 (LILRB2). The assay is described as follows: SPR, Biacore T200, medium resolution; koff held at its limit of 4.27e-5 s^-1. As for the experimental part: (§5) Label-free SPR analysis on a Biacore T200 instrument was utilized to measure antibody affinity to ILT4. CM4 sensor chips from Cytiva Inc. were utilized for all medium resolution analyses. Either anti-mouse Fc specific or anti-human Fc specific capture surfaces were prepared using standard amine coupling chemistry. Mouse, Chimera or Humanized mAbs were captured to their respective surfaces and ILT4 was injected across the surfaces from 101 nM to 0.79 nM in a 2-fold serial dilution series at a flow rate of 100 μL/min. The association phase was followed for 90 sec. while the dissociation phase was followed for 1200 sec. due to the medium resolution analysis implemented here. The sensorgrams were double-referenced and fit globally to a 1:1 interaction model with a term included for mass transport, and the equilibrium dissociation constant was calculated as KD=koff/kₒₙ. […] All kinetic experiments were performed at 25° C. in a buffer consisting of Hepes-buffered saline, pH 7.4, with 0.05% polysorbate 20 (HBS-P+) and 100 μg/ml Bovine Serum Albumin (BSA).

The target is the same in assay [19]. The assay can be described thus: SPR, Biacore T200, mAb captured on anti-Fc, ILT4 injected, medium resolution, 25 C. As for the experimental part:
as §5

For assay [20] the target is unchanged. The assay can be described thus: SPR, Biacore T200, medium resolution; koff held at its limit of 4.27e-5 s^-1; koff held at the limit, 1200 s of dissociation. As for the experimental part:
as §5

A word on the Kd: it is the equilibrium constant for the complex coming apart. By koff is commonly meant the rate constant with which the complex falls apart. By kon is commonly meant the rate constant with which the complex forms. By IC50 is commonly meant the concentration at which inhibition is half-maximal. Higher therefore signals lower potency.

T2 sequence (Q8N423 other isoform, or with tags, fused parts or gaps limits assumed): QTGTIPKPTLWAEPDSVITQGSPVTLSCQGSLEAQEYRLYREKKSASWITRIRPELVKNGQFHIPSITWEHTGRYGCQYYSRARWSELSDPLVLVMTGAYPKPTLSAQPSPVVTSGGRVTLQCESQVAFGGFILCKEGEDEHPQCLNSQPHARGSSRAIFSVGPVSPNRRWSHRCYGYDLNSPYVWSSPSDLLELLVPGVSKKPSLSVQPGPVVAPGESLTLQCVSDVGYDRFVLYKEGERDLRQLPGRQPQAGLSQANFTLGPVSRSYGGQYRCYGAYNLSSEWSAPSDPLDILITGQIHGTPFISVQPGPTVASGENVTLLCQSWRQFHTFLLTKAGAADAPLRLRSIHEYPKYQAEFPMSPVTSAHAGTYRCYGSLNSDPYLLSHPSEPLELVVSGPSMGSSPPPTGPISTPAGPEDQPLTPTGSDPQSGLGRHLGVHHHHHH
T1 sequence (Q8N423 22-597): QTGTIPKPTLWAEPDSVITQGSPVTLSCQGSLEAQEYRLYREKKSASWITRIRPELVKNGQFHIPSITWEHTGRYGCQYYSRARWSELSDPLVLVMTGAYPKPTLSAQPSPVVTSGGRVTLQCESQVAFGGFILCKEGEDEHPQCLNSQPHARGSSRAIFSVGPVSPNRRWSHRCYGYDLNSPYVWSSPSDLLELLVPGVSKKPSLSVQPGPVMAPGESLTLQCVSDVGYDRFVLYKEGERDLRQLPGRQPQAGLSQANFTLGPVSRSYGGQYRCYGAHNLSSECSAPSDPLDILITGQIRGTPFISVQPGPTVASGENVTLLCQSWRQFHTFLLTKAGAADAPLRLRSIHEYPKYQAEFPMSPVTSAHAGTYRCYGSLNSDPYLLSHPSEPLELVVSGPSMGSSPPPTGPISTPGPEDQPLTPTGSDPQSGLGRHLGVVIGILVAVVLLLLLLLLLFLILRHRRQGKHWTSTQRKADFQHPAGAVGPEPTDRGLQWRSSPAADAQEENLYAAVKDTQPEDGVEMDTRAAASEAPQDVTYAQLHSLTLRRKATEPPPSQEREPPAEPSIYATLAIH

B1: J19h1 (antibody, V domains shown)
VH: QITLKESGPTLVKPTQTLTLTCTFSGFSLNTYAMGVSWIRQPPGKALEWLASIWWNGNKYNNPSLKSRLTVTKDTSKNQVVLTMTNMDPVDTATYYCAHSRIIRFTDYVMDAWGQGTLVTVSS
VL: DIQMTQSPSSLSTSVGDRVTITCRASEDIYNDLAWYQQKPGKAPKLLIYNANSLHTGVASRFSGSGSGTDFTFTISSLQPEDVATYFCQQYYDYPLTFGQGTKLEIKR
For B1, in assay [1], the “IL-6 secretion, fold over control, Donor A” value is 3 fold. In [1], the “IL-6 secretion, fold over control, Donor B” value was determined as 2 fold. Besides, the “TNF-α secretion, fold over negative control” value in assay [1] was 8 fold. Moreover, the Kd in assay [2] is 0.85 nM. Further, in [2], the koff was found to be 0.00433 s⁻¹. Further, in assay [3], the kon was determined as 5.11e+06 M⁻¹ s⁻¹. The IC50 was determined as 0.182 µg/mL in assay [4]; 0.0796 µg/mL in assay [5]; 0.13 µg/mL in assay [7]; 0.216 µg/mL in assay [8]; 0.233 µg/mL in assay [9]. Besides, the “fold decrease of PE-HLA-G MFI” value in assay [6] is no more than 22 fold.

B2: 1E1 (antibody, V domains shown)
VH: QVQLQQWGAGLLKPSETLSLTCAVYGGSFSGYYWSWIRQPPGKGLEWIGEINHSGSTNYNPSLKSRVTISVDTSKNQFSLKLSSVTAADTAVYYCARLPTRWVTTRYFDLWGRGTLVTVSS
VL: QSVLTQPPSVSGAPGQRVTISCTGSSSNIGAGYDVHWYQQLPGTAPKLLIYGNSNRPSGVPDRFSVSKSGASASLAITGLQAEDEADYYCQSFDNSLSAYVFGGGTQLTVL
Consider B2, for which, in [10], the “EC50 value of TNFa production, donor 4” value was found to be 0.00877 µg/mL. Further, in assay [10], the “EC50 value of TNFa production, donor 5” value stood at 0.0235 µg/mL. For the same molecule, the “EC50 value of IL-6 production, donor 4” value in [11] is 0.00374 µg/mL. For the same molecule, the “EC50 value of IL-6 production, donor 5” value in [11] was 0.0139 µg/mL. Also, the Kd in assay [2] is 5.5 nM. Further, the koff in assay [2] worked out at 0.00895 s⁻¹. Moreover, the kon in assay [3] came to 1.62e+06 M⁻¹ s⁻¹. Moreover, the IC50 was 0.194 µg/mL in assay [12]; 0.162 µg/mL in assay [13]; 0.151 µg/mL in [14]; 0.171 µg/mL in assay [4]; 0.336 µg/mL in assay [5]; 0.13 µg/mL in assay [7]. Further, the IC50 came to 0.075 µg/mL in assay [8]; 0.102 µg/mL in assay [15]; 0.107 µg/mL in assay [16]; 0.0956 µg/mL in assay [17]; 0.096 µg/mL in assay [9]. In assay [6], the “fold decrease of PE-HLA-G MFI” value was no more than 30 fold.

B3: L156S3 (antibody, IgG2a, V domains shown)
VH: QVQLKQSGAELVRPGASVKLSCRASGYTFTDYYMNWVKQRPGQGLEWIARIYPGVYRTHYNEKFKDKATLTAEKSSSTAYMELSSLTSEDSAVYFCARSGYYGGTYEEDAMDYWGQGTSVTVSS
VL: DIQMTQSPASLSVSVGETVTITCRASENIYSNLAWYQQKQGKSPQLLVYAATSLADGVPSRFRGSGSGTQYSLKISSLQSEDFGNYYCQNFWDTPYTFGGGTKLEIK
notes: also called mouse anti-human ILT4 antibody L156S3
On to B3, for which, in assay [1], the “IL-6 secretion by LPS-stimulated M2 macrophages (MSD), fold over control” value came out at 2 fold. Also, the Kd in assay [18] was no more than 0.16 nM. Besides, in assay [19], the kon turned out to be 269000 M⁻¹ s⁻¹. For the same molecule, the IC50 in [8] was 0.113 µg/mL; in assay [9], 0.088 µg/mL. In addition, the koff in assay [20] is no more than 4.27e-05 s⁻¹.
